According to US8168594B2, “Method for treating celiac disease” (Alba Therapeutics Corporation, priority 2006, dated 2012):

Legend:
[1] = Release from delayed-release particles in Simulated Gastric Fluid (dissolution apparatus, HPLC); assay type: physicochemical; conditions: delayed-release particles containing 4-6% peptide; SGF containing 0.1% v/v Tween 80K, 37° C.; time course of 60 minutes
Method: (§1) The stability of delayed-release particles containing 4-6% tight junction antagonist peptide (SEQ ID NO: 1) was performed. Delayed-release particles prepared as described above were exposed to Simulated Gastric Fluid (SGF) containing 0.1% v/v Tween 80K under controlled temperature (37° C.±0.5° C.) and agitation in a dissolution apparatus for 1 hour. The beads were removed from the SGF and exposed to Simulated Intestinal Fluid (SIF) containing 0.1% v/v Tween 80K. Samples were pulled from the bath and analyzed by HPLC at 220 nm on a Inertsil ODS-2 HPLC Column (150 mm×3 mm, 5 μm) with an Inertsil ODS-2 HPLC Guard Column (20 mm×4.6 […], 5 μm). Mobile Phase A: 92:8 Water:ACN, 0.1% TFA Mobile Phase B: ACN, 0.1% TFA). The chromatographic conditions are shown below.
(§2) • Run time: 17 min • Detection: 220 nm • Response time: 0.5 sec • Column Temp.: 40° C.±1° C. • Auto Sampler Temp: 10° C.±2° c. • Injection Volume: 5 μl of solution
(§3) The percentage of total tight junction effector released is determined by comparison to a reference standard of the effector.
Simulated Gastric Fluid may be prepared as follows: per liter, place the following into a container: 2.0 gram sodium chloride, 7.0 mL concentrated hydrochloric acid, and 1.0 L water. Stir until completely dissolved. Check the pH and adjust to 1.2±0.1 with dilute HCl or NaOH. De-aerate medium. To this solution Tween 80 was added to 0.1% (v/v). […]

[2] = Release from delayed-release particles in Simulated Intestinal Fluid (dissolution apparatus, HPLC); assay type: physicochemical; conditions: delayed-release particles containing 4-6% peptide, SIF containing 0.1% v/v Tween 80K, after 1 hour in SGF
Method: as §1, §2, §3
SIF can be prepared as follows: place the following into a container: 1.9 Kg distilled water, 136 g monobasic potassium phosphate, and 18.1 gram of sodium hydroxide. Stir until completely dissolved. Dilute the solution with 18.0 Kg water. Check the pH and adjust to 6.8±0.1 with dilute HCl or NaOH. De-aerated medium. […]

rabbit ileal mucosa = conditions: cited from earlier work

| Substance | antagonist peptide released in simulated gastric fluid [1] | antagonist peptide released in simulated intestinal fluid within 15 minutes ([2]; within 15 minutes) | antagonist peptide released in simulated intestinal fluid within 60 minutes ([2]; within 60 minutes) | effect on intestinal permeability (rabbit ileal mucosa) |
| --- | --- | --- | --- | --- |
| GGVLVQPG [SEQ ID NO:1, tight junction antagonist peptide] | less than 8% | Over 90% | essentially all | – |
| ZOT: Zonula occludens toxin produced by Vibrio cholerae; tight junction agonist | – | – | – | increased the intestinal permeability |
